In the MegaScale stability set (Tsuboyama et al. 2023):

B1: HEEH_KT_rd6_3632 (parent)
chain: DAEELIELVERALKEGREIILLGVRITSEEAGKWFIEWIRRFL
B2: EEHEE_rd4_0363 (parent)
chain: VTVDIKGMEYHFDNPEEAKKFAERMAKELGGELKVENGTLKVE

Variants of: B1
Assay: folding stability dG (cDNA display proteolysis); higher = more stable
Details: PBS, room temperature

Folding stability dG [kcal/mol]: each site, then its substitutions
V9: F 3.37; A 3.19; Q 2.7; D 2.93; T 3.09; P 2.93; L 3.59; N 2.91; S 2.75; M 3.45; H 2.85; Y 2.87; K 2.75; R 2.87; W 3.15; E 2.87; I 3.79; C 4.04; G 2.81
E15: Y 3.67; T 3.48; G 3.31; P 3.21; A 3.7; V 3.57; K 3.45; W 3.95; M 3.68; R 3.38; S 3.73; Q 3.46; H 3.54; I 3.62; N 3.57; F 3.64; D 3.7; L 3.58
A2: K 3.5; S 3.42; W 4.53; P 3.65; R 3.54; T 3.62; L 4.31; N 3.4; D 3.4; Y 4.2; Q 3.55; M 3.92; I 4.2; G 3.42; H 3.66; F 4.2; E 3.44; V 4.05
R11: S 3.32; H 3.45; K 3.65; P 3.08; D 3.28; L 3.47; G 3.19; F 3.16; W 3.66; Q 3.54; T 3.62; I 3.62; E 3.38; A 3.52; Y 3.15; V 3.37; M 3.41; N 3.51
D1: S 3.98; I 4.2; V 4.07; Y 4.26; H 4.04; L 4.31; W 4.64; M 4.11; A 3.97; K 4.04; T 4; N 3.96; R 4.12; E 3.63; F 4.2; Q 3.93; P 3.89; G 3.9
G16: E 3.1; H 3.58; F 3.97; A 3.84; K 3.53; N 3.58; L 4.32; Y 3.67; T 3.36; V 3.74; D 3.07; R 3.44; C 4.34; Q 3.42; W 4; M 4.09; I 4.25; S 3.49; P 3.26
L8: H 3.26; I 3.61; W 3.7; N 2.93; T 3.28; P 2.77; G 3.03; R 3.53; Q 3.49; E 3.29; M 3.69; F 3.77; S 3.08; A 3.47; Y 3.49; D 2.92; K 3.46; V 3.26
K14: W 3.5; G 3.5; L 3.79; N 3.52; S 3.62; Q 3.56; D 3.25; Y 3.31; F 3.39; E 3.54; A 3.73; P 3.27; T 3.42; I 3.6; V 3.5; M 3.48; H 3.49; R 3.86
L13: R 3.1; Q 2.95; A 3.14; I 3.87; C 4.96; G 2.96; Y 3.28; M 3.67; P 2.88; E 2.96; H 2.99; D 2.97; K 3.07; V 3.54; F 3.42; N 2.88; W 3.43; S 3.08; T 3.25
L5: H 2.83; D 3.02; I 3.44; G 2.88; T 3.08; E 2.77; V 3.23; Y 3.47; S 2.85; R 2.79; C 3.74; F 3.6; A 2.97; W 3.67; K 2.83; N 2.72; P 2.82; M 3.56; Q 2.83
E7: D 3.7; I 3.79; M 3.82; R 4.18; S 3.88; W 3.83; Y 3.77; P 3.1; F 3.74; A 3.99; L 3.91; Q 3.79; K 4.05; H 3.84; T 3.82; C 4.46; G 3.89; V 3.74; N 3.89
A12: G 3.21; L 3.74; S 3.31; H 3.35; E 3.09; Q 3.17; D 2.84; I 3.73; K 3.08; F 3.42; P 2.88; T 3.3; Y 3.33; V 3.55; N 3.13; W 3.76; R 3.17; M 3.56
E4: F 4.15; M 4.01; W 4.19; R 4.21; Q 3.95; Y 4.24; C 4.61; I 4.06; G 3.92; V 3.91; T 4.03; D 3.65; A 3.96; S 3.89; L 4.1; N 3.78; H 4.09; P 3.64; K 4.18
E10: P 2.64; S 3.62; Y 3.81; N 3.82; V 3.99; I 4.3; D 3.41; T 3.92; G 3.28; H 3.78; R 4.03; K 3.93; M 3.84; F 3.69; C 4.65; L 4.16; A 3.63; W 4.21; Q 3.83
E3: R 4.16; L 3.97; T 3.83; H 4.02; I 3.85; M 3.73; W 4.15; D 3.85; Y 4.02; Q 3.94; G 3.69; S 3.74; A 3.87; K 3.8; F 4.06; N 3.87; P 3.46; V 3.78
I6: T 3.25; D 3.2; R 3.38; H 3.29; F 3.48; G 3.18; L 3.62; Y 3.38; K 3.24; S 3.18; C 3.95; E 3.18; M 3.3; P 3.08; V 3.48; N 3.11; W 3.99; Q 3.16; A 3.38
R17: D 2.99; N 3.3; F 3.63; E 3.23; M 3.6; L 3.9; I 3.85; G 3.3; H 3.54; K 3.59; A 3.6

Variants of: B2
Assay: as above
Details: PBS, room temperature

Folding stability dG [kcal/mol]: each site, then its substitutions
V42: Q 0.74; T 0.943; S 0.916; R 0.352; P 0.879; N 0.799; W 1.06; Y 0.816
E43: D 1.91; V 3.14; C 2.81; Q 2.07; L 2.66; Y 2.91; S 2.11; F 2.75; R 2.04; I 3.07; M 2.49; W 2.64; H 2.21; T 2.38; A 1.94; K 1.89; G 1.91; N 1.85; P 1.16
